In US20210188940A1 (BIOAGE LABS, published 2021) one finds Kd data, which are given here for 2 molecules.

What all share (assay): ELISA, ligand coated on plate, RAGE-Fc titrated, anti-IgG Fc-HRP detection; apparent Kd
One assay concerns the target T1, S100A12 (UniProt P80511 1-92, limits assumed).
T1 sequence (looked up): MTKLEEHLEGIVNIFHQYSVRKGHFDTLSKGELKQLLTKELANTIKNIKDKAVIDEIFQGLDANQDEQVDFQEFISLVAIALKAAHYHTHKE
How it is done: (§1) Functional ELISA assays were performed to assess the ligand binding characteristics of RAGE-Fc fusion proteins. Apparent binding affinities of RAGE-Fc fusion proteins to the RAGE ligands CML-HSA, HMGB1, S100A9 and S100A12 were measured for the following fusion proteins: Construct #1 (SEQ ID NO: 5), Construct #9 (SEQ ID NO: 53), Construct #10 (SEQ ID NO: 12), Construct #12 (SEQ ID NO: 15), and Construct #16 (SEQ ID NO: 16). Previous experiments were carried out to determine fundamental functionality of an ELISA, optimal coating concentrations and volumes, a dynamic range for the RAGE-Fc constructs, as well as optimized antibody dilutions and TMB development times.
(§2) RAGE ligands CML-HSA, HMGB1, S100A9 and S100A12 were separately coated onto a coated plate (MaxiSorp™) at a concentration of 50 nanomolar (nM), 100 microliters (μL) per well. RAGE ligand CML-HSA was separately coated onto a coated plate (MaxiSorp™) at a concentration of 100 nanograms (ng), 100 μL per well. The plates were then incubated overnight at 4° C. to allow the protein to bind to the plate coating. Following the coating step, the plates were washed once with 150 μL of wash solution (2.67 mM potassium chloride, […], 136.9 mM sodium chloride, 8.10 mM sodium phosphate dibasic, 0.05% Tween-20). […] After the blocking step, two washes were performed with the wash solution. The RAGE-Fc fusion protein was then incubated on the wells in log10 dilution with each separate ligand for 120 minutes at 37° C. while shaking. After the RAGE-Fc binding step, three washes were performed with the wash solution. Binding of the RAGE-Fc fusion to […], HMGB1, S100A9, and S100A12 was detected with a horseradish peroxidase (HRP) conjugated antibody with antigen specificity to IgG Fc (Abcam, Cat. No. ab99759). 100 μL of antibody diluted 1:5000 in DBPS was added to the assay wells, followed by 60 minutes of incubation at 37° C. while shaking. The wells were then washed four times with the wash solution. 100 μL of TMB (ThermoFisher Scientific, Cat. No. 34029) was then added to each well.

In a further assay the target is T2, HMGB1 (amphoterin) (UniProt P09429 1-215, limits assumed).
T2 sequence (looked up): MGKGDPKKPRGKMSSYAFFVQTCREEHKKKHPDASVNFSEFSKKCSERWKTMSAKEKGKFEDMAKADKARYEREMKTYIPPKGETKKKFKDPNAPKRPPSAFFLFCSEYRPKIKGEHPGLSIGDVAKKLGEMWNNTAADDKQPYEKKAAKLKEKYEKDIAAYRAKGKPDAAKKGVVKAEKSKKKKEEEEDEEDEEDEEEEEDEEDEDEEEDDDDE
How it is done:
as §1, §2

The target in assay [1] is T3, CML-HSA (carboxymethylated human serum albumin) (human, UniProt P02768 25-609, carboxymethylated (CML); modified sites not stated).
T3 construct: An advanced glycation end-product form of HSA, coated on the ELISA plate
How it is done: as §1, §2

The target of the next assay is T4, S100A9 (UniProt P06702 1-114, limits assumed).
T4 sequence (looked up): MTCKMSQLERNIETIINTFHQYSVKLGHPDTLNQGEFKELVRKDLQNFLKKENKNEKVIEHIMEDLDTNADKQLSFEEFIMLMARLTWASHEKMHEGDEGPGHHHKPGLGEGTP
How it is done: as §1, §2

T3 sequence (P02768 25-609 limits assumed): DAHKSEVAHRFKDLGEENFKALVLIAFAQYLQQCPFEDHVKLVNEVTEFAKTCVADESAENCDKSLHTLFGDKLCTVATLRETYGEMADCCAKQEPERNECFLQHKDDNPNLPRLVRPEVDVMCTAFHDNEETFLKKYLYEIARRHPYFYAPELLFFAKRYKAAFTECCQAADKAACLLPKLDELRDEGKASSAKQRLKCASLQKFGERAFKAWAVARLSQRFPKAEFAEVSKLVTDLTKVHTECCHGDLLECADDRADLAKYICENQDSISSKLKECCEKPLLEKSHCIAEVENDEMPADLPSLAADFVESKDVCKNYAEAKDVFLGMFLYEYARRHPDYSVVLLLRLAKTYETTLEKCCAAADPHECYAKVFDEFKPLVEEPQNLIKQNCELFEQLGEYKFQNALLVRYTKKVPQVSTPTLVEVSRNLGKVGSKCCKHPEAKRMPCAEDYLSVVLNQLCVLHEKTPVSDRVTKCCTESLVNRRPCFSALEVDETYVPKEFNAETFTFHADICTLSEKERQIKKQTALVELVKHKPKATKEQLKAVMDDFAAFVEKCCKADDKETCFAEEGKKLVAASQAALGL

B1: Construct #12: RAGE V-C1-C2-V1stem(M/A)-IgG2 lower hinge-(IgG4CH2-CH3) (Fc fusion)
chain: AQNITARIGEPLVLKCKGAPKKPPQRLEWKLNTGRTEAWKVLSPQGGGPWDSVARVLPNGSLFLPAVGIQDEGIFRCQAMNRNGKETKSNYRVRVYQIPGKPEIVDSASELTAGVPNKVGTCVSEGSYPAGTLSWHLDGKPLVPNEKGVSVKEQTRRHPETGLFTLQSELMVTPARGGDPRPTFSCSFSPGLPRHRALRTAPIQPRVWEPVPLEEVQLVVEPEGGAVAPGGTVTLTCEVPAQPSPQIHWMKDGVPLPLPPSPVLILPEIGPQDQGTYSCVATHSSHGPQESRAVSISIIEPGEEGPTAGEGFDKVREAEDSPQHAVECPPCAPPVAGGPSVFLFPPKPKDTLMISRTPEVTCVVVDVSQEDPEVQFNWYVDGVEVHNAKTKPREEQFNSTYRVVSVLTVLHQDWLNGKEYKCKVSNKGLPSSIEKTISKAKGQPREPQVYTLPPSQEEMTKNQVSLTCLVKGFYPSDIAVEWESNGQPENNYKTTPPVLDSDGSFFLYSRLTVDKSRWQEGNVFSCSVMHEALHNHYTQKSLSLSLGK
notes: also called esRAGE-Fc fusion
Turning to B1, the Kd stood at 44 nM with S100A12, 7 nM in the assay with HMGB1 (amphoterin), 39 nM in assay [1] and 25 nM in the assay with S100A9.

B2: Construct #16: RAGE V-C1-C2-V1stem(M/A)-IgG2 lower hinge-(IgG4CH2-CH3)-YTE (Fc fusion)
chain: AQNITARIGEPLVLKCKGAPKKPPQRLEWKLNTGRTEAWKVLSPQGGGPWDSVARVLPNGSLFLPAVGIQDEGIFRCQAMNRNGKETKSNYRVRVYQIPGKPEIVDSASELTAGVPNKVGTCVSEGSYPAGTLSWHLDGKPLVPNEKGVSVKEQTRRHPETGLFTLQSELMVTPARGGDPRPTFSCSFSPGLPRHRALRTAPIQPRVWEPVPLEEVQLVVEPEGGAVAPGGTVTLTCEVPAQPSPQIHWMKDGVPLPLPPSPVLILPEIGPQDQGTYSCVATHSSHGPQESRAVSISIIEPGEEGPTAGEGFDKVREAEDSPQHAVECPPCAPPVAGGPSVFLFPPKPKDTLYITREPEVTCVVVDVSQEDPEVQFNWYVDGVEVHNAKTKPREEQFNSTYRVVSVLTVLHQDWLNGKEYKCKVSNKGLPSSIEKTISKAKGQPREPQVYTLPPSQEEMTKNQVSLTCLVKGFYPSDIAVEWESNGQPENNYKTTPPVLDSDGSFFLYSRLTVDKSRWQEGNVFSCSVMHEALHNHYTQKSLSLSLGK
notes: also called #12 + YTE; esRAGE-Fc fusion
Regarding B2, the Kd was determined as 36 nM with S100A12, 7 nM with HMGB1 (amphoterin), 35 nM in assay [1] and 27 nM in the assay with S100A9.
